{"source": "patent US20250011363A1", "about": "“OPTIMIZED SHORTENED PEPTIDE THAT BINDS TO ACETYLCHOLINE RECEPTOR, AND USE THEREOF” (SKINMED CO., LTD., priority 2021, published 2025)"}
{"target": "acetylcholine receptor", "assay": "SPR, AchR immobilized on CM5 chip, peptide 10 uM", "units": {"Binding affinity (RU)": "RU"}}
{"binder": "RRTNFK", "note": "[6mer-1-751]", "Binding affinity (RU)": 27}
{"binder": "KKYHHR", "note": "[6mer-1-758]", "Binding affinity (RU)": 33}
{"binder": "KRPTEK", "note": "[6mer-1-752]", "Binding affinity (RU)": 16}
{"binder": "KKTKAR", "note": "[6mer-1-762]", "Binding affinity (RU)": 13}
{"binder": "RRNPFK", "note": "[6mer-1-764]", "Binding affinity (RU)": 24}
{"binder": "RKMSVK", "note": "[6mer-1-746]", "Binding affinity (RU)": 24}
{"binder": "RKHEIK", "note": "[6mer-1-744]", "Binding affinity (RU)": 31}
{"binder": "RKDNEK", "note": "[6mer-1-757]", "Binding affinity (RU)": 26}
{"binder": "RKFEWK", "note": "[6mer-1-768]", "Binding affinity (RU)": 32}
{"binder": "RRFHWR", "note": "[6mer-1-742]", "Binding affinity (RU)": 14}
{"binder": "KRENIK", "note": "[6mer-1-750]", "Binding affinity (RU)": 33}
{"binder": "RKMTWR", "note": "[6mer-1-759]", "Binding affinity (RU)": 23}
{"binder": "RRANMR", "note": "[6mer-1-755]", "Binding affinity (RU)": 25}
{"binder": "KKTMEK", "note": "[6mer-1-745]", "Binding affinity (RU)": 11}
{"binder": "KRTPDK", "note": "[6mer-1-767]", "Binding affinity (RU)": 18}
{"binder": "RKDNKR", "note": "[6mer-1-740]", "Binding affinity (RU)": 26}
{"binder": "RKCTIR", "note": "[6mer-1-766]", "Binding affinity (RU)": 15}
{"binder": "KRASPK", "note": "[6mer-1-765]", "Binding affinity (RU)": 25}
{"binder": "KKTMDR", "note": "[6mer-1-747]", "Binding affinity (RU)": 24}
{"binder": "RKPHWR", "note": "[6mer-1-749]", "Binding affinity (RU)": 33}
{"binder": "RKMPVK", "note": "[6mer-1-769]", "Binding affinity (RU)": 14}
{"binder": "KRMMVR", "note": "[6mer-1-760]", "Binding affinity (RU)": 21}
{"binder": "RKKKMK", "note": "[6mer-1-754]", "Binding affinity (RU)": 24}
{"binder": "RKAKMK", "note": "[6mer-1-756]", "Binding affinity (RU)": 33}
{"binder": "RRDCAK", "note": "[6mer-1-763]", "Binding affinity (RU)": 12}
{"binder": "KKDTHK", "note": "[6mer-1-753]", "Binding affinity (RU)": 12}
{"binder": "RKEAGR", "note": "[6mer-1-741]", "Binding affinity (RU)": 24}
{"binder": "KKTMVR", "note": "[6mer-1-743]", "Binding affinity (RU)": 14}
{"binder": "RKHNGR", "note": "[6mer-1-748]", "Binding affinity (RU)": 24}
{"binder": "RKTNAR", "note": "[6mer-1-770]", "Binding affinity (RU)": 29}
{"binder": "RKETFR", "note": "[6mer-1-761]", "Binding affinity (RU)": 33}
